Assay results taken from patent US6410775.
“And” between values parts separate entries of the source, which are not always exact repeats. Equal values may be shown once. Bridge positions count the residues as written; N and C are the ends. Square brackets hold non-standard residues; d marks the D form. Ends that are not written are not given here. αMeP = C[C@@]1(C(=O)O)CCCN1

How the values were obtained:
ACA-6701 aPL antibody [1] = assay: fluorescence polarization
ACA-6701 aPL antibody [2] = assay: competitive fluorescence polarization (cFP), displacement of CB2*-F
[3] = biological target: nine affinity purified ACA antibodies; assay: competitive ELISA on CL/β2-GPI plates, peptide monomer 1 mg/mL; average of nine ACA
ACA-6501 aPL antibody [4] = assay: competitive ELISA on CL/β2-GPI plates, peptide monomer 1 mg/mL, affinity-purified ACA
ACA-6626 aPL antibody [5] = assay: as above
ACA-6638 aPL antibody [6] = assay: as above
ACA-6641 aPL antibody [7] = assay: as above
ACA-6644 aPL antibody [8] = assay: as above
ACA-6701 aPL antibody [9] = assay: as above
ACA-6903 aPL antibody [10] = assay: as above
ACA-7004 aPL antibody [11] = assay: as above
ACA-7005 aPL antibody [12] = assay: as above
[13] = biological target: nine affinity purified ACA antibodies; assay: competitive ELISA on CL/β2-GPI plates, peptide monomer 200 µg/mL; average of nine ACA
ACA-6501 aPL antibody [14] = assay: competitive ELISA on CL/β2-GPI plates, peptide monomer 200 µg/mL, affinity-purified ACA
ACA-6626 aPL antibody [15] = assay: as above
ACA-6638 aPL antibody [16] = assay: as above
ACA-6641 aPL antibody [17] = assay: as above
ACA-6644 aPL antibody [18] = assay: as above
ACA-6701 aPL antibody [19] = assay: as above
ACA-6903 aPL antibody [20] = assay: as above
ACA-7004 aPL antibody [21] = assay: as above
ACA-7005 aPL antibody [22] = assay: as above
[23] = biological target: ACA sera [1]-[10] of Table 7; assay: competitive ELISA; mean ± sd over the ten ACA sera
ACA-6501 aPL antibody [24] = assay: competitive ELISA, peptide at 1.8 mg/mL; members from Table 7
ACA-6626 aPL antibody [25] = assay: as above
ACA-6635 aPL antibody [26] = assay: as above
ACA-6638 aPL antibody [27] = assay: as above
ACA-6641 aPL antibody [28] = assay: as above
ACA-6644 aPL antibody [29] = assay: as above
ACA-6701 aPL antibody [30] = assay: as above
ACA-6903 aPL antibody [31] = assay: as above
ACA-7004 aPL antibody [32] = assay: as above
ACA-7005 aPL antibody [33] = assay: as above
ACA-6501 aPL antibody [34] = assay: competitive ELISA, ACA serum on cardiolipin/β2-GPI-coated plates
ACA-6626 aPL antibody [35] = assay: as above
ACA-6635 aPL antibody [36] = assay: as above
ACA-6638 aPL antibody [37] = assay: as above
ACA-6641 aPL antibody [38] = assay: as above
ACA-6701 aPL antibody [39] = assay: as above
ACA-6903 aPL antibody [40] = assay: as above
ACA-7004 aPL antibody [41] = assay: as above
ACA-7005 aPL antibody [42] = assay: as above
ACA-6644 aPL antibody [43] = assay: competitive ELISA, ACA serum (printed 664) on cardiolipin/β2-GPI-coated plates
ACA-6501 aPL antibody [44] = assay: competitive ELISA I50; antibody not given, ACA-6501 serum on CL/β2-GPI assumed (Ex. 4B)
ACA-6501 aPL antibody [45] = assay: competitive ELISA on plate-bound tetravalent 3B10
ACA-6501 aPL antibody [46] = assay: aPL antibody binding of modified 3B10 peptides
ACA-6501 aPL antibody [47] = assay: competitive ELISA on plate-bound tetravalent 3B10, ACA-6501 serum

B1: peptide ACA-6501/3B10 … (monomer) (peptide)
peptide: AGPCLLLAPDRCPG
Question: How did the fold weaker binding against CB2* (ACA-6701 aPL antibody [1]) turn out when B1 was run?
Answer: The fold weaker binding against CB2* was 9 fold.

Question: What about the Ki (ACA-6701 aPL antibody [2]) of the same binder?
Answer: The Ki was 313 nM.

Question: What about the percent inhibition (Ave.) [3] of the same binder?
Answer: The percent inhibition (Ave.) was 65%.

Question: What about the percent inhibition (ACA-6501 aPL antibody [4]) of the same binder?
Answer: The percent inhibition was 60%.

Question: What about the percent inhibition (ACA-6626 aPL antibody [5]) of the same binder?
Answer: Its percent inhibition is 76%.

Question: And the percent inhibition (ACA-6638 aPL antibody [6])?
Answer: Its percent inhibition is 87%.

Question: And the percent inhibition (ACA-6641 aPL antibody [7])?
Answer: The percent inhibition was 52%.

Question: And the percent inhibition (ACA-6644 aPL antibody [8])?
Answer: The percent inhibition was 55%.

Question: What about the percent inhibition (ACA-6701 aPL antibody [9]) of the same binder?
Answer: Its percent inhibition is 51%.

Question: And the percent inhibition (ACA-6903 aPL antibody [10])?
Answer: The percent inhibition was 69%.

Question: And the percent inhibition (ACA-7004 aPL antibody [11])?
Answer: Its percent inhibition is 87%.

Question: And the percent inhibition (ACA-7005 aPL antibody [12])?
Answer: The percent inhibition was 47%.

B2: peptide ACA-6701/3B1 … (peptide)
peptide: AGPLSDPGYVRNIFHPG
Question: Which percent inhibition (Ave.) [3] does the source give for B2 here?
Answer: The percent inhibition (Ave.) was 52%.

Question: What about the percent inhibition (ACA-6501 aPL antibody [4]) of the same binder?
Answer: Its percent inhibition is 41%.

Question: What about the percent inhibition (ACA-6626 aPL antibody [5]) of the same binder?
Answer: The percent inhibition was 43%.

Question: What about the percent inhibition (ACA-6638 aPL antibody [6]) of the same binder?
Answer: Its percent inhibition is 65%.

Question: And the percent inhibition (ACA-6641 aPL antibody [7])?
Answer: The percent inhibition was 43%.

Question: What about the percent inhibition (ACA-6644 aPL antibody [8]) of the same binder?
Answer: The percent inhibition was 37%.

Question: What about the percent inhibition (ACA-6701 aPL antibody [9]) of the same binder?
Answer: The percent inhibition was 96%.

Question: What about the percent inhibition (ACA-6903 aPL antibody [10]) of the same binder?
Answer: The percent inhibition was 51%.

Question: What about the percent inhibition (ACA-7004 aPL antibody [11]) of the same binder?
Answer: Its percent inhibition is 72%.

Question: What about the percent inhibition (ACA-7005 aPL antibody [12]) of the same binder?
Answer: The percent inhibition was 23%.

B3: peptide ACA-6644/CBf … (peptide)
peptide: GILALDYVGG
Question: B3 was tested. Which percent inhibition (Ave.) [13] did it give?
Answer: Its percent inhibition (Ave.) is 39%.

Question: And the percent inhibition (ACA-6501 aPL antibody [14])?
Answer: Its percent inhibition is 37%.

Question: And the percent inhibition (ACA-6626 aPL antibody [15])?
Answer: The percent inhibition was 37%.

Question: What about the percent inhibition (ACA-6638 aPL antibody [16]) of the same binder?
Answer: Its percent inhibition is 60%.

Question: What about the percent inhibition (ACA-6641 aPL antibody [17]) of the same binder?
Answer: Its percent inhibition is 28%.

Question: And the percent inhibition (ACA-6644 aPL antibody [18])?
Answer: The percent inhibition was 18%.

Question: What about the percent inhibition (ACA-6701 aPL antibody [19]) of the same binder?
Answer: Its percent inhibition is 22%.

Question: And the percent inhibition (ACA-6903 aPL antibody [20])?
Answer: The percent inhibition was 43%.

Question: What about the percent inhibition (ACA-7004 aPL antibody [21]) of the same binder?
Answer: Its percent inhibition is 54%.

Question: What about the percent inhibition (ACA-7005 aPL antibody [22]) of the same binder?
Answer: The percent inhibition was 57%.

B4: peptide ACA-6641/3G3 … (LJP 688) (peptide)
peptide: AGPCLGVLGKLCPG
Question: Which IC50 [23] does the source give for B4 here?
Answer: The IC50 was 860 µg/mL.

Question: What about the percent inhibition (ACA-6501 aPL antibody [24]) of the same binder?
Answer: Its percent inhibition is 80%.

Question: What about the percent inhibition (ACA-6626 aPL antibody [25]) of the same binder?
Answer: Its percent inhibition is > 80%.

Question: And the percent inhibition (ACA-6635 aPL antibody [26])?
Answer: The percent inhibition was > 80%.

Question: And the percent inhibition (ACA-6638 aPL antibody [27])?
Answer: The percent inhibition was > 80%.

Question: What about the percent inhibition (ACA-6641 aPL antibody [28]) of the same binder?
Answer: Its percent inhibition is > 80%.

Question: And the percent inhibition (ACA-6644 aPL antibody [29])?
Answer: The percent inhibition was > 80%.

Question: And the percent inhibition (ACA-6701 aPL antibody [30])?
Answer: Its percent inhibition is > 80%.

Question: What about the percent inhibition (ACA-6903 aPL antibody [31]) of the same binder?
Answer: Its percent inhibition is > 80%.

Question: And the percent inhibition (ACA-7004 aPL antibody [32])?
Answer: The percent inhibition was > 80%.

Question: What about the percent inhibition (ACA-7005 aPL antibody [33]) of the same binder?
Answer: Its percent inhibition is > 80%.

Question: And the IC50 (ACA-6501 aPL antibody [34])?
Answer: The IC50 was 890 µg/mL and 1100 µg/mL.

Question: What about the IC50 (ACA-6626 aPL antibody [35]) of the same binder?
Answer: The IC50 was 1090 µg/mL.

Question: What about the IC50 (ACA-6635 aPL antibody [36]) of the same binder?
Answer: The IC50 was 1000 µg/mL.

Question: And the IC50 (ACA-6638 aPL antibody [37])?
Answer: The IC50 was 810 µg/mL.

Question: And the IC50 (ACA-6641 aPL antibody [38])?
Answer: The IC50 was 890 µg/mL and 510 µg/mL.

Question: What about the IC50 (ACA-6701 aPL antibody [39]) of the same binder?
Answer: The IC50 was 1070 µg/mL.

Question: What about the IC50 (ACA-6903 aPL antibody [40]) of the same binder?
Answer: Its IC50 is 800 µg/mL.

Question: And the IC50 (ACA-7004 aPL antibody [41])?
Answer: Its IC50 is 670 µg/mL.

Question: And the IC50 (ACA-7005 aPL antibody [42])?
Answer: The IC50 was 750 µg/mL.

Question: What about the IC50 (ACA-6644 aPL antibody [43]) of the same binder?
Answer: Its IC50 is 760 µg/mL.

Question: What about the percent inhibition (Ave.) [3] of the same binder?
Answer: Its percent inhibition (Ave.) is 97%.

Question: What about the percent inhibition (ACA-6501 aPL antibody [4]) of the same binder?
Answer: The percent inhibition was 86%.

Question: What about the percent inhibition (ACA-6626 aPL antibody [5]) of the same binder?
Answer: The percent inhibition was 100%.

Question: And the percent inhibition (ACA-6638 aPL antibody [6])?
Answer: Its percent inhibition is 100%.

Question: And the percent inhibition (ACA-6641 aPL antibody [7])?
Answer: The percent inhibition was 93%.

Question: And the percent inhibition (ACA-6644 aPL antibody [8])?
Answer: The percent inhibition was 100%.

Question: And the percent inhibition (ACA-6701 aPL antibody [9])?
Answer: Its percent inhibition is 100%.

Question: And the percent inhibition (ACA-6903 aPL antibody [10])?
Answer: Its percent inhibition is 100%.

Question: And the percent inhibition (ACA-7004 aPL antibody [11])?
Answer: The percent inhibition was 100%.

Question: What about the percent inhibition (ACA-7005 aPL antibody [12]) of the same binder?
Answer: The percent inhibition was 95%.

Question: And the IC50 (ACA-6501 aPL antibody [44])?
Answer: The IC50 was 850 µg/mL.

B5: peptide 139 (3B10 lacking the framework Ala-Gly at the amino terminus) (peptide)
peptide: PCLLLAPDRCPG
Question: B5 was tested. Which fold increase of the 50% inhibition concentration against peptide 142 (ACA-6501 aPL antibody [45]) did it give?
Answer: Its fold increase of the 50% inhibition concentration against peptide 142 is 8 fold.

B6: peptide 727 (3B10 with αMe-Pro at the 9 position) (peptide)
peptide: AGPCLLLA[αMeP]DRCPG
modifications: cysteine pairing not given here
Question: Which fold enhancement in immunoreactivity against 3B10 (ACA-6501 aPL antibody [46]) does the source give for B6 here?
Answer: The fold enhancement in immunoreactivity against 3B10 was 6 fold.

Question: What about the fold increase in activity against native 3B10 (ACA-6501 aPL antibody [47]) of the same binder?
Answer: Its fold increase in activity against native 3B10 is 4 fold.

B7: CB2* … (peptide)
peptide: GPCILLARDRCG
modifications: disulfide 3-11 (inferred)
Question: B7 was tested. Which fold improvement in binding against CB2*-F (ACA-6701 aPL antibody [1]) did it give?
Answer: The fold improvement in binding against CB2*-F was 14 fold.

Question: And the Ki (ACA-6701 aPL antibody [2])?
Answer: The Ki was 35 nM.
